The record followed here is paper PMC4439124, “Hairy/Enhancer-of-Split MEGANE and Proneural MASH1 Factors Cooperate Synergistically in Midbrain GABAergic Neurogenesis” (PLoS ONE, 2015).

The experiment deals with T1, MGN (MEGANE), yeast two-hybrid fusion (mouse, UniProt Q7TS99 1-240).
T1 construct: The two Gal4 domains are alternatives: one fusion as bait (BD), another as prey (AD); also called Helt; BD-MGN; source: yeast two-hybrid fusion
T1 sequence (looked up): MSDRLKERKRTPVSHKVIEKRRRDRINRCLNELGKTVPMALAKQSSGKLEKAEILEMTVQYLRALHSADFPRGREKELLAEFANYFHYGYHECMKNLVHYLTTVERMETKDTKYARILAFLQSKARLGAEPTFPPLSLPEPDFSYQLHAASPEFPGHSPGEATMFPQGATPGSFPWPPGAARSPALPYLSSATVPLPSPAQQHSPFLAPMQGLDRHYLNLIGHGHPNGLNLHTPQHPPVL
Kind of experiment: two-hybrid; quantitative β-galactosidase assay on liquid cultures (X-gal; in parallel ONPG, absorbance at 420 nm), five independent transformants per pair, normalised against cell density and dilution. The settings on record: partners not purified.

B1: MASH1, yeast two-hybrid fusion (natural protein, mouse, UniProt Q02067 1-231, looked up)
chain: MESSGKMESGAGQQPQPPQPFLPPAACFFATAAAAAAAAAAAAQSAQQQQPQAPPQQAPQLSPVADSQPSGGGHKSAAKQVKRQRSSSPELMRCKRRLNFSGFGYSLPQQQPAAVARRNERERNRVKLVNLGFATLREHVPNGAANKKMSKVETLRSAVEYIRALQQLLDEHDAVSAAFQAGVLSPTISPNYSNDLNSMAGSPVSSYSSDEGSYDPLSPEEQELLDFTNWF
notes: The two Gal4 domains are alternatives: one fusion as bait (BD), another as prey (AD); also called Ascl1; MASH1-AD; source: yeast two-hybrid fusion
Consider B1, for which the “fold β-galactosidase activity (strength of interaction) over the MASH1/MASH1 homodimer” value worked out at 4 fold and the “fold β-galactosidase activity (strength of interaction) over the MGN/MGN homodimer” value worked out at 4.4 fold.
